Assay results: publication PMC13708078, “Development of a GRPR-Targeted ^99mTc/^188Re Theranostic Pair Based on NOTA-P2-RM26” (Pharmaceutics, 2026)

Assay: in vivo
Design: species or system mice
Conditions: female, Swiss Albino SCID, mouse, iv, total radioactivity
Experimental: PC-3 xenografts were established in female Swiss Albino SCID mice, aged 7–8 weeks. After acclimatization, animals were injected subcutaneously into the right shoulder/upper-flank region with freshly harvested PC-3 cells suspended in PBS. Each animal received 5 × 10^6 cells. Tumors were allowed to grow for approximately three weeks until palpable solid tumors were formed. At the time of the experiments, tumor volumes ranged from 200 to 400 mm^3. Animals were then randomly assigned to experimental groups.
Biodistribution studies were performed at 30 min and 1 h post injection (p.i.). […] The injected volume was 100 μL, and the injected activity was approximately 100 kBq per animal. Animals weighed 21 ± 2 g on the day of the experiment. For in vivo blocking studies, a separate group of animals received non-radioactive NOTA-P2-RM26 (50 μg) 5 min prior to the radiotracer injection. Blocking animals were euthanized at 1 h p.i. At the selected time points, animals were euthanized. Blood, tumors, organs, and tissues of interest were collected, weighed, and measured for radioactivity using the gamma counter. The stomach and intestines were measured without content. […] Data were decay-corrected and expressed as a percentage of injected activity per gram of tissue (%IA/g). Urine/bladder and gastrointestinal/fecal content were expressed as a percentage of injected activity (%IA).

CC(C)C[C@H](NC(=O)C[C@H](O)[C@H](CC(C)C)NC(=O)[C@H](Cc1c[nH]cn1)NC(=O)CNC(=O)[C@@H](NC(=O)[C@H](C)NC(=O)[C@H](Cc1c[nH]c2ccccc12)NC(=O)[C@H](CCC(N)=O)NC(=O)[C@@H](Cc1ccccc1)NC(=O)COCCOCCNC(=O)CN1CCN(CC(=O)O)CCN(CC(=O)O)CC1)C(C)C)C(N)=O [^99mTc2, fac-[^99mTc][Tc(CO)3(NOTA-P2-RM26)], metal not drawn]
tissue uptake at 1 h (bone uptake): 0.18 ± 0.07 %ID/g
tissue uptake at 1 h (pancreatic uptake): 3 ± 0.35 %ID/g
